The results in this text go back to US20160074469A1.

This assay deals with human MC1r (melanocortin receptor type 1) (human) (UniProt Q01726). As to the kind of experiment: cell-based or functional assay.
Chain of UniProt Q01726 (Q01726 whole entry): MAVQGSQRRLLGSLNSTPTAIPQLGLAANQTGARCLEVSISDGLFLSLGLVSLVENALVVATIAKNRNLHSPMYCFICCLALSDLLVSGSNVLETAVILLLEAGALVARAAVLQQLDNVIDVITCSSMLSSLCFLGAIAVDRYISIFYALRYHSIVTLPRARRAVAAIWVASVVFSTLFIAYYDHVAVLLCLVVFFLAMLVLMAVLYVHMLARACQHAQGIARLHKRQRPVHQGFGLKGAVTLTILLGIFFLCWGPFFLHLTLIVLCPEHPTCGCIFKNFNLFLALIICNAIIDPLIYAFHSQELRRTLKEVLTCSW

For Ac-KKKKKKSYSMEHFRWGKPV-NH2 [Ac(Lys)6-αMSH (Ac(Lys)6-Ser-Tyr-Ser-Met-Glu-His-Phe-Arg-Trp-Gly-Lys-Pro-Val-NH2)], the EC50, cAMP production turned out to be 2.12 nM and the Emax (max efficacy expressed as percent of αMSH), cAMP production was 72 % of αMSH.
